Here are results for six molecules from paper PMC6650482, “Tyrosine 51 residue of the syndecan-2 extracellular domain is involved in the interaction with and activation of pro-matrix metalloproteinase-7” (Scientific Reports, 2019).

Positions count from the first letter of the chain named. In names and notes the source's numbering stands. Entries after “also recorded” stand apart in the source; their conditions may differ.

The nature of series [1]: Circular dichroism secondary structure. Format: physicochemical. As to the method: Figure 2 The pro-domain of MMP-7 is involved in its interaction with the syndecan-2 extracellular domain. (A) Schematic representations of the pro-domain of MMP-7 (PD) and the deletion mutants lacking the pro-domain, N-terminus (ΔN), C-terminus (ΔC) and both N- and C-terminus (ΔNC) (top). His-tagged MMP-7 pro-domain was purified with Ni-NTA agarose beads, separated by SDS-PAGE and stained with Coomassie Blue (bottom). (B) Purified GST-S2E, S2E-C and S2E-NII were incubated with His-tagged PD, or ΔN, ΔC or ΔNC MMP-7 pro-domain. Materials bound to glutathione-agarose beads were immunoblotted with an anti-His tag antibody (top). The membranes were then stripped and re-probed with an anti-GST antibody (bottom). […] Absorbance was measured at 450 nm. […]
Figure 4 The α2–3 helix of the MMP-7 pro-domain is involved in its interaction with the syndecan-2 extracellular domain. […] (C) The secondary structure of the α2–3 helix of the MMP-7 pro-domain was analyzed using CD in the presence of different concentrations of TFE (top). Quantitative estimations of the secondary-structure content were made with the CDPro software package, which includes the programs CDSSTR, CONTIN, and SELCON3. […] Smaller values of NRMSD indicate closer correspondence between calculated structures and the experimental data. […]

A further series deals with GST-SDC-2. Description: In vitro binding of MMP-7 pro-domain fragments to GST-SDC2. Set-up: species or system human. Particulars: GST-SDC-2, glutathione-agarose beads, anti-His immunoblot. As to the method: (§1) Figure 4 The α2–3 helix of the MMP-7 pro-domain is involved in its interaction with the syndecan-2 extracellular domain. (A) Structure of the MMP-7 pro-domain (PDB; 2MZE) and schematic diagram of the MMP-7 pro-domain (PD) and its deletion mutants. The indicated MMP-7 pro-domain mutants were purified with Ni-NTA agarose beads, separated by SDS-PAGE. Purified MMP-7 pro-domain mutants were incubated with GST-SDC-2. Materials bound to glutathione-agarose beads were immunoblotted with an anti-His tag antibody and the membranes were stripped and re-probed with an anti-GST antibody. Image is of a single membrane cropped to remove intervening lanes. (B) Purified GST-SDC2 mutants were incubated with His-tagged α2–3 helix of the MMP-7 pro-domain. Materials bound to glutathione-agarose beads were immunoblotted with an anti-His tag antibody (top) and the membranes were then stripped and re-probed with an anti-GST antibody (bottom). (C) The secondary structure of the α2–3 helix of the MMP-7 pro-domain was analyzed using CD in the presence of different concentrations of TFE (top). Quantitative estimations of the secondary-structure content were made with the CDPro software package, which includes the programs CDSSTR, CONTIN, and SELCON3. […] Smaller values of NRMSD indicate closer correspondence between calculated structures and the experimental data.

In series [2] the test system is N-terminus of the extracellular domain of syndecan-2. Nature of the series: In vitro binding of MMP-7 α2–3 helix with N-terminus of the syndecan-2 extracellular domain. Also on record: species or system human. As to conditions: His-tagged α2–3, GST-SDC2 mutants, anti-His immunoblot. As to the method:
as §1

Series [3] deals with His-tagged pro-domain of MMP-7 (His-PD) (human, UniProt P09237 18-267, Limits are the UniProt activation peptide. Paper's NMR numbering + 24 = precursor numbering (Gln7=Q31, Glu32=E56, Gly48=G72, Ser52=S76). Deletion-construct numbering implies a PD of about 79 residues,). Description: other fluorescence titration; tryptophan quenching; 15 uM His-PD, S2-P titrated up to 1:200 molar ratio; PBS pH 7.4, 298 K; excitation 280 nm, intensity at 347 nm. Particulars: both partners purified.

The target of series [4] is T1, His-tagged pro-domain of MMP-7 (His-PD) (Homo sapiens, UniProt P09237).
T1 construct: His tag; pET32a(+) vector-encoded fusion part (thioredoxin/S-tag by own knowledge of the vector); made in house
T1 sequence (P09237 18-94 limits assumed): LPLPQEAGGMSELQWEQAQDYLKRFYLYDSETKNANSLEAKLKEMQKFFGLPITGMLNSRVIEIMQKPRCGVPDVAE
Description: In vitro binding (GST pulldown / anti-His immunoblot) with His-PD. Particulars: GST-tagged proteins. The text has this: Figure 1 The N-terminus of syndecan-2 interacts with the pro-domain of MMP-7. (A) Schematic representation of the syndecan-2 core protein (SDC2) and MMP-7. The signal peptide (SP), the extracellular domain (EC), the transmembrane domain (TM), and the cytoplasmic domain (CT) of syndecan-2 are noted, and the various deletion mutants are indicated. A peptide corresponding to residues 41–60 of the syndecan-2 extracellular domain (S2-P) was synthesized. Syndecan-2 is labeled with amino acid numbers to show the location of each deletion (left). Schematic representation of MMP-7. The pre-domain (Pre), pro-domain (PD), and catalytic domain are shown (right top). Purified GST-SDC2 mutants and the His-tagged pro-domain of MMP-7 were separated by 15% SDS-PAGE and stained with Coomassie Blue (right bottom). (B) Purified GST or GST-SDC2 mutants were incubated with His-tagged pro-domain of MMP-7 (His-PD). Bound materials were subjected to immunoblotting with an anti-His tag antibody (top). The membranes were then stripped and re-probed with an anti-GST antibody (bottom). (C) Purified GST-SDC2 was incubated with purified His-PD MMP-7 plus the indicated amounts of S2-P for 2 h at 4 °C. Bound materials were subjected to immunoblotting with an anti-His tag antibody (top). […] (D) Fluorescence spectroscopy indicates the binding affinity between His-PD and S2-P peptide. […]

Series [5] relates to His-tagged α2–3 helix of the MMP-7 pro-domain. Nature of the series: In vitro binding of GST-SDC2 proteins to His-tagged α2–3. Also on record: species or system human. Particulars: 2 h at 4 °C, glutathione-agarose beads, immunoblot. As to the method:
as §1, with “data. […]” for “data.”

The test system of series [6] is His-tagged ΔNC MMP-7 pro-domain. Nature of the series: In vitro binding of GST-SDC2 mutants to His-ΔNC. Set-up: species or system human. As to conditions: 2 h at 4 °C, immunoblot. As to the method: Figure 2 The pro-domain of MMP-7 is involved in its interaction with the syndecan-2 extracellular domain. (A) Schematic representations of the pro-domain of MMP-7 (PD) and the deletion mutants lacking the pro-domain, N-terminus (ΔN), C-terminus (ΔC) and both N- and C-terminus (ΔNC) (top). His-tagged MMP-7 pro-domain was purified with Ni-NTA agarose beads, separated by SDS-PAGE and stained with Coomassie Blue (bottom). (B) Purified GST-S2E, S2E-C and S2E-NII were incubated with His-tagged PD, or ΔN, ΔC or ΔNC MMP-7 pro-domain. Materials bound to glutathione-agarose beads were immunoblotted with an anti-His tag antibody (top). The membranes were then stripped and re-probed with an anti-GST antibody (bottom). (C) ELISA plates coated with 600 ng of S2-P were incubated with the indicated His-tagged MMP-7 pro-domains (500 ng/well) for 2 h at 20 °C. The plates were washed, incubated with an anti-His tag antibody followed by IgG-HRP, and developed with TMB-ELISA. Absorbance was measured at 450 nm. Data are shown as mean ± S.D. (n = 3), *p < 0.05 versus blank. (D) Purified GST-SDC2 was mixed with His-tagged ΔNC for 2 h at 4 °C., separated by SDS-PAGE, and immunoblotted with anti-His or -GST antibodies. (E) The secondary structures of the MMP-7 pro-domain mutants of ΔN, ΔC and ΔNC were diluted to 50 μM in a buffer consisting of 10 mM HEPES and 20 mM NaCl, pH 8, and kept at 20 °C. […]

Chain of His-tagged pro-domain of MMP-7 (His-PD) (human, UniProt P09237 18-267, Limits are the UniProt activation peptide. Paper's NMR numbering + 24 = precursor numbering (Gln7=Q31, Glu32=E56, Gly48=G72, Ser52=S76). Deletion-construct numbering implies a PD of about 79 residues,) (P09237 18-267): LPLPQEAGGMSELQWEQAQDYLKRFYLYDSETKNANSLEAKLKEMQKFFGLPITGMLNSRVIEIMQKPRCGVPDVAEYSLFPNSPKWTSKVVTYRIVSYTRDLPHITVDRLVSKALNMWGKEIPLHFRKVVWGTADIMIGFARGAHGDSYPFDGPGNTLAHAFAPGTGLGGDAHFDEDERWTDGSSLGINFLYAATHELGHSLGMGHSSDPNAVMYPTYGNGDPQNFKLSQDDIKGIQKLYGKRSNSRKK

Molecule “α2–3: α2 helix-loop-α3 helix protein fragment of the MMP-7 pro-domain” had a helicity in series [1] (CD, α-helical fraction from CDPro, without TFE) of 75%. Moreover, in series [1] (far-UV CD, pro-domain mutants at 50 μM, 10 mM HEPES, 20 mM NaCl, pH 8, 20 °C (Fig. 2E), α2–3 in Fig. 4C), the “secondary structure by CD (qualitative)” value is “had a helical structure, as suggested by the presence of minima (negative peaks) at 208 and 222 nm”. Also, the “interaction with syndecan-2 (pulldown, qualitative)” value with GST-SDC-2 was “interacted with syndecan-2, although to a slightly weaker degree than ΔNC; also recorded: interacted with recombinant syndecan-2 in vitro”. Moreover, the “interaction with the N-terminus of the extracellular domain of syndecan-2 (pulldown, qualitative)” value in series [2] is “interacted with the N-terminus of the extracellular domain of syndecan-2”.

B1: synthetic human syndecan-2 peptide (S2-P), extracellular domain residues 41-60 (peptide)
peptide: SGVYPIDDDDYASASGSGAD
notes: human syndecan-2 extracellular domain residues 41-60; also called S2-P peptide; source: synthetic peptide (Fmoc solid-phase, Anygen Inc.)
As to B1, in series [3], the Kd is 1.586 ± 0.012 mM.

B2: S2E: GST-tagged syndecan-2 extracellular domain (protein)
chain: ESRAELTSDKDMYLDNSSIEEASGVYPIDDDDYASASGSGADEDVESPELTTSRPLPKILLTSAAPKVETTTLNIQNKIPAQTKSPEETDKEKVHLSDSERKMDPAEEDTNVYTEKHSDSLFKRTE
modifications: left off: GST, end not stated, kept
notes: GST-tagged syndecan-2 extracellular domain
For B2, the “interaction with His-PD (pulldown, qualitative)” value in series [4] is “interacted with the pro-domain of MMP-7”.

B3: Y51A: substitution of Tyr51 with Ala in the syndecan-2 extracellular domain (protein)
chain: B2 chain with Y33A
modifications: left off: GST, end not stated, kept
notes: substitution of Tyr51 with Ala in the syndecan-2 extracellular domain
Regarding B3, the “interaction with α2–3 (pulldown, qualitative)” value in series [5] was “failed to interact with the α2–3”. In series [6], the “interaction with His-tagged ΔNC (pulldown, qualitative)” value is listed as “significantly reduced the interaction”.

B4: D49A: substitution of Asp49 with Ala in the syndecan-2 extracellular domain (protein)
chain: B2 chain with D31A
modifications: left off: GST, end not stated, kept
notes: substitution of Asp49 with Ala in the syndecan-2 extracellular domain
For the molecule B4, the “interaction with His-tagged ΔNC (pulldown, qualitative)” value in series [6] is listed as “did not affect its interaction”.

B5: recombinant syndecan-2: Purified GST-SDC2 (protein, UniProt P34741 19-201, looked up)
Syndecan-2: ESRAELTSDKDMYLDNSSIEEASGVYPIDDDDYASASGSGADEDVESPELTTSRPLPKILLTSAAPKVETTTLNIQNKIPAQTKSPEETDKEKVHLSDSERKMDPAEEDTNVYTEKHSDSLFKRTEVLAAVIAGGVIGFLFAIFLILLLVYRMRKKDEGSYDLGERKPSSAAYQKAPTKEFYA
modifications: GST tag
notes: Purified GST-SDC2
On to B5, for which the “interaction with α2–3 (pulldown, qualitative)” value in series [5] is “interacted with the α2–3”.
